# Laboratory results as given in article PMC12416549 (2024).
# Numbering of substitutions follows the chain as printed. Names and notes keep the numbering of the source.
# B1: A10V (designed binder)
# chain: SMEEEVEKAVKEYEKKKKEAIEKHLEKLKAKDKEAAERFLKELEEAAKEYAKDEAKTMSEEEAKRRAKKYKEKVLLSELSEEEQKEIKEAEEKLVRTILKYVEEAAK
# B2: E81C (designed binder)
# chain: B1 chain with V10A, E81C
# B3: K11Q (designed binder)
# chain: B1 chain with V10A, K11Q
# B4: K52S (designed binder)
# chain: B1 chain with V10A, K52S
# B5: E44Q (designed binder)
# chain: B1 chain with V10A, E44Q
# B6: E83R (designed binder)
# chain: B1 chain with V10A, E83R
# B7: E60T (designed binder)
# chain: B1 chain with V10A, E60T
# B8: S59L (designed binder)
# chain: B1 chain with V10A, S59L
# B9: S59N (designed binder)
# chain: B1 chain with V10A, S59N
# B10: V95R (designed binder)
# chain: B1 chain with V10A, V95R
# B11: K100A (designed binder)
# chain: B1 chain with V10A, K100A
# B12: K18G (designed binder)
# chain: B1 chain with V10A, K18G
# B13: A51T (designed binder)
# chain: B1 chain with V10A, A51T
# B14: S80V (designed binder)
# chain: B1 chain with V10A, S80V
# B15: A51W (designed binder)
# chain: B1 chain with V10A, A51W
# B16: A105F (designed binder)
# chain: B1 chain with V10A, A105F
# B17: E37N (designed binder)
# chain: B1 chain with V10A, E37N
# B18: L94S (designed binder)
# chain: B1 chain with V10A, L94S
# B19: K73P (designed binder)
# chain: B1 chain with V10A, K73P
# B20: E54Q (designed binder)
# chain: B1 chain with V10A, E54Q
# B21: S77F (designed binder)
# chain: B1 chain with V10A, S77F
# B22: E26K (designed binder)
# chain: B1 chain with V10A, E26K
# B23: R96S (designed binder)
# chain: B1 chain with V10A, R96S
# B24: M2T (designed binder)
# chain: B1 chain with M2T, V10A
# B25: A9H (designed binder)
# chain: B1 chain with A9H, V10A
# B26: A67F (designed binder)
# chain: B1 chain with V10A, A67F
# B27: K48L (designed binder)
# chain: B1 chain with V10A, K48L
# B28: K52D (designed binder)
# chain: B1 chain with V10A, K52D
# B29: E82T (designed binder)
# chain: B1 chain with V10A, E82T
# B30: E42Y (designed binder)
# chain: B1 chain with V10A, E42Y
# B31: K85Y (designed binder)
# chain: B1 chain with V10A, K85Y
# B32: M2V (designed binder)
# chain: B1 chain with M2V, V10A
# B33: K64G (designed binder)
# chain: B1 chain with V10A, K64G
# B34: A47C (designed binder)
# chain: B1 chain with V10A, A47C
# B35: A47Q (designed binder)
# chain: B1 chain with V10A, A47Q
# B36: E89M (designed binder)
# chain: B1 chain with V10A, E89M
# B37: A9N (designed binder)
# chain: B1 chain with A9N, V10A
# B38: S59G (designed binder)
# chain: B1 chain with V10A, S59G
# B39: E7M (designed binder)
# chain: B1 chain with E7M, V10A
# B40: L40C (designed binder)
# chain: B1 chain with V10A, L40C
# B41: A20T (designed binder)
# chain: B1 chain with V10A, A20T
# B42: D32E (designed binder)
# chain: B1 chain with V10A, D32E
# B43: I98L (designed binder)
# chain: B1 chain with V10A, I98L
# B44: E14C (designed binder)
# chain: B1 chain with V10A, E14C
# B45: R38K (designed binder)
# chain: B1 chain with V10A, R38K
# B46: R96T (designed binder)
# chain: B1 chain with V10A, R96T
# B47: L79P (designed binder)
# chain: B1 chain with V10A, L79P
# B48: K31T (designed binder)
# chain: B1 chain with V10A, K31T
# B49: E14D (designed binder)
# chain: B1 chain with V10A, E14D
# B50: K73M (designed binder)
# chain: B1 chain with V10A, K73M
# B51: K48A (designed binder)
# chain: B1 chain with V10A, K48A
# B52: L79I (designed binder)
# chain: B1 chain with V10A, L79I
# B53: A30L (designed binder)
# chain: B1 chain with V10A, A30L
# B54: F39G (designed binder)
# chain: B1 chain with V10A, F39G
# B55: E5P (designed binder)
# chain: B1 chain with E5P, V10A
# B56: A90G (designed binder)
# chain: B1 chain with V10A, A90G
# B57: L25M (designed binder)
# chain: B1 chain with V10A, L25M
# B58: K33R (designed binder)
# chain: B1 chain with V10A, K33R
# B59: L28A (designed binder)
# chain: B1 chain with V10A, L28A
# Target: T1, TNFR1 (Homo sapiens, UniProt P19438)
# T1 chain: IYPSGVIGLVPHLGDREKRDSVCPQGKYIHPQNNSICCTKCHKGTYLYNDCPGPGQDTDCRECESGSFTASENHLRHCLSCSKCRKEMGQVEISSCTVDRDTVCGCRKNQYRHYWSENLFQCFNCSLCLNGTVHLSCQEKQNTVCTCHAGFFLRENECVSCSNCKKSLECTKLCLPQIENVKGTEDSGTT
# Experiment: yeast display SC50
row,Binder,apparent Kd (screen)
1,B1,0.49 nM
2,B2,0.869 nM
3,B3,0.446 nM
4,B4,0.446 nM
5,B5,0.653 nM
6,B6,0.539 nM
7,B7,1.4 nM
8,B8,1.05 nM
9,B9,1.69 nM
10,B10,7.78 nM
11,B11,1.4 nM
12,B12,0.653 nM
13,B13,3.3 nM
14,B14,1.27 nM
15,B15,0.49 nM
16,B16,3 nM
17,B17,0.446 nM
18,B18,12.5 nM
19,B19,5.31 nM
20,B20,10.4 nM

row,Binder,apparent Kd (screen)
1,B21,1.05 nM
2,B22,0.49 nM
3,B23,2.48 nM
4,B24,0.446 nM
5,B25,0.539 nM
6,B26,18.3 nM
7,B27,0.49 nM
8,B28,0.446 nM
9,B29,0.49 nM
10,B30,6.43 nM
11,B31,0.446 nM
12,B32,0.446 nM
13,B33,0.49 nM
14,B34,0.49 nM
15,B35,0.49 nM
16,B36,1.05 nM
17,B37,0.869 nM
18,B38,0.446 nM
19,B39,10.4 nM
20,B40,0.446 nM

row,Binder,apparent Kd (screen)
1,B41,0.718 nM
2,B42,0.956 nM
3,B43,13.8 nM
4,B44,9.41 nM
5,B45,10.4 nM
6,B46,1.54 nM
7,B47,7.78 nM
8,B48,0.593 nM
9,B49,1.16 nM
10,B50,0.869 nM
11,B51,0.446 nM
12,B52,1.86 nM
13,B53,0.593 nM
14,B54,2.73 nM
15,B55,0.446 nM
16,B56,0.49 nM
17,B57,0.539 nM
18,B58,0.869 nM
19,B59,0.718 nM
